Measurements as given in patent US20130316941A1 (Boehringer Ingelheim, published 2013).

Assays:
[1] = target: human glucagon receptor (Glucagon-R) (human, UniProt P47871 26-477); test: cell-based or functional assay
[2] = target: human glucagon-like peptide 1 receptor (GLP-1R) (human, UniProt P43220 24-463); test: cell-based or functional assay

human glucagon receptor (Glucagon-R), sequence (P47871 26-477): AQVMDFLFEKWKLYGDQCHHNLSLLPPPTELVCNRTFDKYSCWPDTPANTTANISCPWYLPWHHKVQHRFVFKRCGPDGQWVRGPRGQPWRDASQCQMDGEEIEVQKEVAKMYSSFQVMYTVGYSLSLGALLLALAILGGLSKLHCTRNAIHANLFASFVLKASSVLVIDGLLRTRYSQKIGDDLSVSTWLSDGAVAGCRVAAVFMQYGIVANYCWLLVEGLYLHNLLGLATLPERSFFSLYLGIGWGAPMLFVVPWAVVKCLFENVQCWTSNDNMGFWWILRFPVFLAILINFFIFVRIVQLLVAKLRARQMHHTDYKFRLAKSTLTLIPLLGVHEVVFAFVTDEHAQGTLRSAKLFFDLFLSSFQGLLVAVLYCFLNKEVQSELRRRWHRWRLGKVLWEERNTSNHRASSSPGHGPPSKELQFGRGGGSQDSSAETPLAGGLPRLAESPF

B1: H-H-Aib-PGTFTSDYSRYLDE-K(Hexadecanoyl-isoGlu)-RARDFIEWLLSA-NH2 [Compound 15] (peptide)
peptide: HXPGTFTSDYSRYLDEKRARDFIEWLLSA
HELM: PEPTIDE1{H.[Aib].P.G.T.F.T.S.D.Y.S.R.Y.L.D.E.K.R.A.R.D.F.I.E.W.L.L.S.A.[am]}|PEPTIDE2{[CCCCCCCCCCCCCCCC(=O)[*:2]].[gGlu]}$PEPTIDE1,PEPTIDE2,17:R3-2:R2$$$V2.0
SMILES: CCCCCCCCCCCCCCCC(=O)N[C@@H](CCC(=O)NCCCC[C@H](NC(=O)[C@H](CCC(=O)O)NC(=O)[C@H](CC(=O)O)NC(=O)[C@H](CC(C)C)NC(=O)[C@H](Cc1ccc(O)cc1)NC(=O)[C@H](CCCNC(=N)N)NC(=O)[C@H](CO)NC(=O)[C@H](Cc1ccc(O)cc1)NC(=O)[C@H](CC(=O)O)NC(=O)[C@H](CO)NC(=O)[C@@H](NC(=O)[C@H](Cc1ccccc1)NC(=O)[C@@H](NC(=O)CNC(=O)[C@@H]1CCCN1C(=O)C(C)(C)NC(=O)[C@@H](N)Cc1c[nH]cn1)[C@@H](C)O)[C@@H](C)O)C(=O)N[C@@H](CCCNC(=N)N)C(=O)N[C@@H](C)C(=O)N[C@@H](CCCNC(=N)N)C(=O)N[C@@H](CC(=O)O)C(=O)N[C@@H](Cc1ccccc1)C(=O)N[C@H](C(=O)N[C@@H](CCC(=O)O)C(=O)N[C@@H](Cc1c[nH]c2ccccc12)C(=O)N[C@@H](CC(C)C)C(=O)N[C@@H](CC(C)C)C(=O)N[C@@H](CO)C(=O)N[C@@H](C)C(N)=O)[C@@H](C)CC)C(=O)O
With B1 the “EC50 values for cAMP generation in HEK293 cells expressing Glucagon receptor” value [1] was 0.42 nM and the “EC50 values for cAMP generation in HEK293 cells expressing GLP-1 receptor” value [2] was 0.06 nM.

B2: H-H-Aib-QGTFTSDYSRYLDE-K(Hexadecanoyl-isoGlu)-RAKDFIEWLLSA-NH2 [Compound 16] (peptide)
peptide: HXQGTFTSDYSRYLDEKRAKDFIEWLLSA
HELM: PEPTIDE1{H.[Aib].Q.G.T.F.T.S.D.Y.S.R.Y.L.D.E.K.R.A.K.D.F.I.E.W.L.L.S.A.[am]}|PEPTIDE2{[CCCCCCCCCCCCCCCC(=O)[*:2]].[gGlu]}$PEPTIDE1,PEPTIDE2,17:R3-2:R2$$$V2.0
SMILES: CCCCCCCCCCCCCCCC(=O)N[C@@H](CCC(=O)NCCCC[C@H](NC(=O)[C@H](CCC(=O)O)NC(=O)[C@H](CC(=O)O)NC(=O)[C@H](CC(C)C)NC(=O)[C@H](Cc1ccc(O)cc1)NC(=O)[C@H](CCCNC(=N)N)NC(=O)[C@H](CO)NC(=O)[C@H](Cc1ccc(O)cc1)NC(=O)[C@H](CC(=O)O)NC(=O)[C@H](CO)NC(=O)[C@@H](NC(=O)[C@H](Cc1ccccc1)NC(=O)[C@@H](NC(=O)CNC(=O)[C@H](CCC(N)=O)NC(=O)C(C)(C)NC(=O)[C@@H](N)Cc1c[nH]cn1)[C@@H](C)O)[C@@H](C)O)C(=O)N[C@@H](CCCNC(=N)N)C(=O)N[C@@H](C)C(=O)N[C@@H](CCCCN)C(=O)N[C@@H](CC(=O)O)C(=O)N[C@@H](Cc1ccccc1)C(=O)N[C@H](C(=O)N[C@@H](CCC(=O)O)C(=O)N[C@@H](Cc1c[nH]c2ccccc12)C(=O)N[C@@H](CC(C)C)C(=O)N[C@@H](CC(C)C)C(=O)N[C@@H](CO)C(=O)N[C@@H](C)C(N)=O)[C@@H](C)CC)C(=O)O
With B2 the “EC50 values for cAMP generation in HEK293 cells expressing Glucagon receptor” value [1] was 0.11 nM and the “EC50 values for cAMP generation in HEK293 cells expressing GLP-1 receptor” value [2] was 0.06 nM.
